The source of these data is patent publication US10227388B2, “Peptides and combination of peptides for use in immunotherapy against non-small cell lung cancer and other cancers” (immatics biotechnologies GmbH, priority 2015, dated 2019).

In this assay the target is HLA-A*02:01 (Homo sapiens, UniProt P04439, D140Y/D185E/D98H/E176V/E277Q/G131W/G231S/I119V/I121R/I166T/I218V/L300P/L318F/N151K/N90K/P208A/P217A/Q86G/Q94H/R138H/R169H/T345S). Nature of the assay: MHC binding assay (UV-ligand exchange, ELISA, peptide exchange yield). Particulars: binding of HLA-class I restricted peptides to HLA-A*02:01. From the text:
Candidate peptides for T cell based therapies according to the present invention were further tested for their MHC binding capacity (affinity). The individual peptide-MHC complexes were produced by UV-ligand exchange, where a UV-sensitive peptide is cleaved upon UV-irradiation, and exchanged with the peptide of interest as analyzed. Only peptide candidates that can effectively bind and stabilize the peptide-receptive MHC molecules prevent dissociation of the MHC complexes. To determine the yield of the exchange reaction, an ELISA was performed based on the detection of the light chain ([…]) of stabilized MHC complexes. The assay was performed as generally described in Rodenko et al. (Rodenko et al., 2006).
96 well MAXISorp plates (NUNC) were coated over night with 2-ug/ml streptavidin in PBS at room temperature, washed 4× and blocked for 1 h at 37° C. in 2% BSA containing blocking buffer. […] Peptide-MHC monomers of the UV-exchange reaction were diluted 100 fold in blocking buffer. Samples were incubated for 1 h at 37° C., washed four times, incubated with 2-ug/ml HRP conjugated anti-β2m for 1 h at 37° C., washed again and detected with TMB solution that is stopped with […]. Absorption was measured at 450 nm. Candidate peptides that show a high exchange yield (preferably higher than 50%, most preferred higher than 75%) are generally preferred for a generation and production of antibodies or fragments thereof, and/or T cell receptors or fragments thereof, as they show sufficient avidity to the MHC molecules and prevent dissociation of the MHC complexes.
Background: ELISA stands for enzyme-linked immunosorbent assay.

Turning to “584 (ALAEVAAMENV; listed as Homo sapiens) [compound 584]”, the “Peptide exchange (MHC class I binding score, peptide exchange yield)” value (shortened to “Peptide exchange”) is given as “″+++″ (≥50% = +++)”. Under “107 (FLQPVDDTQHL; listed as Homo sapiens) [compound 107]” stands “″+++″ (≥50% = +++)”; under “582 (TLCDVILMV; listed as Homo sapiens) [compound 582]”, “″+++″ (≥50% = +++)”; under “531 (YTLPIASSIRL; listed as Homo sapiens) [compound 531]”, “″+++″ (≥50% = +++)”.

For “366 (RLLDMGETDLML; listed as Homo sapiens) [compound 366]”, the “Peptide exchange” value was “″+++″ (≥50% = +++)”. The value for “87 (ALPEAPAPLLPHIT; listed as Homo sapiens) [compound 87]” was “″++″ (≥20% = ++)”; that for “398 (KLLEEDGTIITL; listed as Homo sapiens) [compound 398]” was “″++″ (≥20% = ++)”; that for “356 (KLLGKLPEL; listed as Homo sapiens) [compound 356]” was “″+++″ (≥50% = +++)”. The value for “238 (YLISFQTHI; listed as Homo sapiens) [compound 238]” was “″+++″ (≥50% = +++)”. On to “108 (ALFPGVALLLA; listed as Homo sapiens) [compound 108]”, for which the “Peptide exchange” value is recorded as “″++++″ (≥75% = ++++)”. Under “151 (KILQQLVTL; listed as Homo sapiens) [compound 151]” stands “″+++″ (≥50% = +++)”; under “189 (ALQRKLPYV; listed as Homo sapiens) [compound 189]”, “″+++″ (≥50% = +++)”. The value for “69 (FQLDPSSGVLVTV; listed as Homo sapiens) [compound 69]” was “″+++″ (≥50% = +++)”; that for “318 (GLINTGVLSV; listed as Homo sapiens) [compound 318]” was “″++″ (≥20% = ++)”. On to “269 (RVLEVGALQAV; listed as Homo sapiens) [compound 269]”, for which the “Peptide exchange” value is on record as “″++″ (≥20% = ++)”.

With “4 (GIMEHITKI; listed as Homo sapiens) [compound 4]”, the “Peptide exchange” value was “″++++″ (≥75% = ++++)”. Take “147 (SLLEAVSFL; listed as Homo sapiens) [compound 147]”: the “Peptide exchange” value is “″+++″ (≥50% = +++)”.

Take “91 (IMQDFPAEIFL; listed as Homo sapiens) [compound 91]”: the “Peptide exchange” value is recorded as “″++++″ (≥75% = ++++)”.

Consider “507 (KLIDDQDISISL; listed as Homo sapiens) [compound 507]”, for which the “Peptide exchange” value is “″+++″ (≥50% = +++)”. The value for “149 (NLLELFVQL; listed as Homo sapiens) [compound 149]” was “″+++″ (≥50% = +++)”; that for “310 (FLVDTPLARA; listed as Homo sapiens) [compound 310]” was “″++++″ (≥75% = ++++)”. The value for “359 (YLLPESVDL; listed as Homo sapiens) [compound 359]” was “″+++″ (≥50% = +++)”. Consider “563 (WLLPYNGVTV; listed as Homo sapiens) [compound 563]”, for which the “Peptide exchange” value is reported as “″+++″ (≥50% = +++)”. With “167 (KVLEVTEEFGV; listed as Homo sapiens) [compound 167]”, the “Peptide exchange” value was “″+++″ (≥50% = +++)”. Under “569 (KLVDRTWTL; listed as Homo sapiens) [compound 569]” stands “″+++″ (≥50% = +++)”; under “97 (SLINGSFLV; listed as Homo sapiens) [compound 97]”, “″+++″ (≥50% = +++)”. The value for “479 (SLFGNSGILENV; listed as Homo sapiens) [compound 479]” was “″+++″ (≥50% = +++)”; that for “526 (RLAEVGQYEQV; listed as Homo sapiens) [compound 526]” was “″++″ (≥20% = ++)”; that for “503 (SLNHFTHSV; listed as Homo sapiens) [compound 503]” was “″+++″ (≥50% = +++)”. Take “385 (SLLEQGLVEA; listed as Homo sapiens) [compound 385]”: the “Peptide exchange” value is “″++″ (≥20% = ++)”. Turning to “453 (KLLEATSAV; listed as Homo sapiens) [compound 453]”, the “Peptide exchange” value was “″++″ (≥20% = ++)”. “131 (FVPPVTVFPSL; listed as Homo sapiens) [compound 131]”: the “Peptide exchange” value is “″++″ (≥20% = ++)”. The value for “537 (TLAPGEVLRSV; listed as Homo sapiens) [compound 537]” was “″+++″ (≥50% = +++)”; that for “234 (ALMEDTGRQML; listed as Homo sapiens) [compound 234]” was “″++″ (≥20% = ++)”; that for “308 (SQYSGQLHEV; listed as Homo sapiens) [compound 308]” was “″+++″ (≥50% = +++)”. With “219 (KLSDIGITV; listed as Homo sapiens) [compound 219]”, the “Peptide exchange” value is reported as “″+++″ (≥50% = +++)”.

As for “77 (ILVEADGAWVV; listed as Homo sapiens) [compound 77]”, the “Peptide exchange” value was “″++++″ (≥75% = ++++)”. Under “352 (SLLELLHIYV; listed as Homo sapiens) [compound 352]” stands “″+++″ (≥50% = +++)”; under “299 (YLLETSGNL; listed as Homo sapiens) [compound 299]”, “″+++″ (≥50% = +++)”; under “468 (YLRSVGDGETV; listed as Homo sapiens) [compound 468]”, “″+++″ (≥50% = +++)”. In the case of “575 (YLISQVEGHQV; listed as Homo sapiens) [compound 575]”, the “Peptide exchange” value is on record as “″+++″ (≥50% = +++)”. Consider “85 (KMSELRVTL; listed as Homo sapiens) [compound 85]”, for which the “Peptide exchange” value is recorded as “″+++″ (≥50% = +++)”.

“22 (IMEENPGIFAV; listed as Homo sapiens) [compound 22]”: the “Peptide exchange” value is recorded as “″+++″ (≥50% = +++)”. The value for “1 (SLMEPPAVLLL; listed as Homo sapiens) [compound 1]” was “″+++″ (≥50% = +++)”; that for “88 (FLLVGDLMAV; listed as Homo sapiens) [compound 88]” was “″+++″ (≥50% = +++)”.

In the case of “71 (GILARIASV; listed as Homo sapiens) [compound 71]”, the “Peptide exchange” value is on record as “″+++″ (≥50% = +++)”.
